Starred links: 1 amine or outer side, 2 acyl side, 3 side chain; linkers in the order of their positions; H or OH if unused. Non-standard residues stand in square brackets, D forms with d. Primed or numbered codes have the meaning given here. No end group written: not given here. Asn(OH)″ = N^γ-hydroxy-L-asparagine (L-aspartic acid β-hydroxamate), O=C(C[C@H](N[*:1])C(=O)[*:2])NO; Asn(OH) = N-gamma-hydroxy-L-asparagine, O=C(C[C@H](N[*:1])C(=O)[*:2])NO[*:3]
T1: matrix metalloprotease 2 (MMP2) (UniProt P08253 110-660, limits assumed)
T1 sequence (looked up): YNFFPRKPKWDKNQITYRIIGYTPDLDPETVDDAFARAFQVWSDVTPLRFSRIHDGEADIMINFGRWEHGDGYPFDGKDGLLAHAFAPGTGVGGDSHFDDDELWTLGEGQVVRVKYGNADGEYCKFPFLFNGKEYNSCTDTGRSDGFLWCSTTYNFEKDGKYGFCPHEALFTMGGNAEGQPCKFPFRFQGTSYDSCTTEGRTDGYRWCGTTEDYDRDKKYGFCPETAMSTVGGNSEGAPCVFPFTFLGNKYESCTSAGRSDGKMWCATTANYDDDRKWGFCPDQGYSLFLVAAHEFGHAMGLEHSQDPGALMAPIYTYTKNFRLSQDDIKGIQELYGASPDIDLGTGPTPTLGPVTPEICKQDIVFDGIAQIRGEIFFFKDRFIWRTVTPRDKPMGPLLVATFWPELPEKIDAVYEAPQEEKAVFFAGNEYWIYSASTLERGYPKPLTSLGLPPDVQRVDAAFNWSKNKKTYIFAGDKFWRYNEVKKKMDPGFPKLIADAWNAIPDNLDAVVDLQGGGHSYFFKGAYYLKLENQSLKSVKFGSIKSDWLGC

B1: cyclo[SGISYGQN(OH)ALMPSG] (peptide)
peptide: cyclo(SGISYGQ[Asn(OH)″]ALMPSG)
SMILES: CC[C@H](C)[C@@H]1NC(=O)CNC(=O)[C@H](CO)NC(=O)CNC(=O)[C@H](CO)NC(=O)[C@@H]2CCCN2C(=O)[C@H](CCSC)NC(=O)[C@H](CC(C)C)NC(=O)[C@H](C)NC(=O)[C@H](CC(=O)NO)NC(=O)[C@H](CCC(N)=O)NC(=O)CNC(=O)[C@H](Cc2ccc(O)cc2)NC(=O)[C@H](CO)NC1=O
notes: also called peptide 12
B2: cyclic MCoTI-II, [GGVCPKILKKCRRDSDCPGACICRGNGYCGSGSD] (peptide)
peptide: cyclo(GGVCPKILKKCRRDSDCPGACICRGNGYCGSGSD)
modifications: not fully specified (bridges); also: three disulfide bonds, pairing not given here
notes: also called MCoTI-II 20; cyclo-MCoTI-II
B3: cyclo[SISYGQN(OH)ALMPG] (peptide)
peptide: cyclo(SISYGQ[Asn(OH)″]ALMPG)
SMILES: CC[C@H](C)[C@@H]1NC(=O)[C@H](CO)NC(=O)CNC(=O)[C@@H]2CCCN2C(=O)[C@H](CCSC)NC(=O)[C@H](CC(C)C)NC(=O)[C@H](C)NC(=O)[C@H](CC(=O)NO)NC(=O)[C@H](CCC(N)=O)NC(=O)CNC(=O)[C@H](Cc2ccc(O)cc2)NC(=O)[C@H](CO)NC1=O
B4: cyclo[…(OH)ALMPSGQYM] (peptide)
peptide: cyclo(ATRSGISYGQ[Asn(OH)″]ALMPSGQYM)
SMILES: CC[C@H](C)[C@@H]1NC(=O)CNC(=O)[C@H](CO)NC(=O)[C@H](CCCNC(=N)N)NC(=O)[C@H]([C@@H](C)O)NC(=O)[C@H](C)NC(=O)[C@H](CCSC)NC(=O)[C@H](Cc2ccc(O)cc2)NC(=O)[C@H](CCC(N)=O)NC(=O)CNC(=O)[C@H](CO)NC(=O)[C@@H]2CCCN2C(=O)[C@H](CCSC)NC(=O)[C@H](CC(C)C)NC(=O)[C@H](C)NC(=O)[C@H](CC(=O)NO)NC(=O)[C@H](CCC(N)=O)NC(=O)CNC(=O)[C@H](Cc2ccc(O)cc2)NC(=O)[C@H](CO)NC1=O
notes: also called peptide 15
B5: Asn(OH)-RTD1 17, cyclo[SYCN(OH)CLCRRGVCRCICTI] (peptide)
peptide: cyclo(SYC[Asn(OH)]CLCRRGVCRCICTI)
modifications: disulfide (positions not given here); not fully specified (bridges); printed as cyclo[SYCN(OH)CLCRRGVCRCICTI]; also: oxidatively folded disulfides, pairing not given here
notes: also called peptide 17; grafted peptide 17
B6: Asn(OH)-APP-IP peptide 9, ISYGNN(OH)ALMP (peptide)
peptide: ISYGN[Asn(OH)″]ALMP-NH2
modifications: N-terminus assumed
SMILES: CC[C@H](C)[C@H](N)C(=O)N[C@@H](CO)C(=O)N[C@@H](Cc1ccc(O)cc1)C(=O)NCC(=O)N[C@@H](CC(N)=O)C(=O)N[C@@H](CC(=O)NO)C(=O)N[C@@H](C)C(=O)N[C@@H](CC(C)C)C(=O)N[C@@H](CCSC)C(=O)N1CCC[C@H]1C(N)=O
notes: Linear 10-mer; also called linear Asn(OH)-APP-IP peptide 9
B7: cyclo[ISYGQN(OH)ALMP] (peptide)
peptide: cyclo(ISYGQ[Asn(OH)″]ALMP)
SMILES: CC[C@H](C)[C@@H]1NC(=O)[C@@H]2CCCN2C(=O)[C@H](CCSC)NC(=O)[C@H](CC(C)C)NC(=O)[C@H](C)NC(=O)[C@H](CC(=O)NO)NC(=O)[C@H](CCC(N)=O)NC(=O)CNC(=O)[C@H](Cc2ccc(O)cc2)NC(=O)[C@H](CO)NC1=O
notes: also called peptide 10
B8: Asp-RTD-1 18, cyclo[SYCDCLCRRGVCRCICTI] (peptide)
peptide: cyclo(SYCDCLCRRGVCRCICTI)
modifications: disulfide (positions not given here); also: oxidatively folded, disulfide pairing not given here
notes: Obtained by NaIO4 oxidation of Asn(OH)-RTD-1 17; also called peptide 18
B9: Asn-RTD-1 19, cyclo[SYCNCLCRRGVCRCICTI] (peptide)
peptide: cyclo(SYCNCLCRRGVCRCICTI)
modifications: disulfide (positions not given here); also: oxidatively folded disulfides, pairing not given here
notes: also called peptide 19
B10: cyclo[…(OH)ALMPSGA] (peptide)
peptide: cyclo(GSGISYGQ[Asn(OH)]ALMPSGA)
SMILES: CC[C@H](C)[C@@H]1NC(=O)CNC(=O)[C@H](CO)NC(=O)CNC(=O)[C@H](C)NC(=O)CNC(=O)[C@H](CO)NC(=O)[C@@H]2CCCN2C(=O)[C@H](CCSC)NC(=O)[C@H](CC(C)C)NC(=O)[C@H](C)NC(=O)[C@H](CC(=O)NO)NC(=O)[C@H](CCC(N)=O)NC(=O)CNC(=O)[C@H](Cc2ccc(O)cc2)NC(=O)[C@H](CO)NC1=O
notes: also called peptide 13
B11: cyclo[…(OH)ALMPSGYM] (peptide)
peptide: cyclo(ATSGISYGQ[Asn(OH)]ALMPSGYM)
SMILES: CC[C@H](C)[C@@H]1NC(=O)CNC(=O)[C@H](CO)NC(=O)[C@H]([C@@H](C)O)NC(=O)[C@H](C)NC(=O)[C@H](CCSC)NC(=O)[C@H](Cc2ccc(O)cc2)NC(=O)CNC(=O)[C@H](CO)NC(=O)[C@@H]2CCCN2C(=O)[C@H](CCSC)NC(=O)[C@H](CC(C)C)NC(=O)[C@H](C)NC(=O)[C@H](CC(=O)NO)NC(=O)[C@H](CCC(N)=O)NC(=O)CNC(=O)[C@H](Cc2ccc(O)cc2)NC(=O)[C@H](CO)NC1=O
notes: also called peptide 14
B12: β-amyloid precursor protein-derived inhibitory peptide (APP-IP) 8, ISYGNDALMP (peptide)
peptide: ISYGNDALMP-NH2
notes: Linear 10-mer; also called peptide 8; linear APP-IP 8
B13: rhesus theta defensin-1 (RTD-1) 16, cyclo[GFCRCLCRRGVCRCICTR] (peptide)
peptide: cyclo(GFCRCLCRRGVCRCICTR)
modifications: disulfide (positions not given here); not fully specified; printed as cyclo[GFCRCLCRRGVCRCICTR]
notes: also called peptide 16; native RTD-1

Experiments:
[1] = biological target: T1, matrix metalloprotease 2 (MMP2); assay: cell-based or functional assay
[2] = biological target: T1, matrix metalloprotease 2 (MMP2); assay: MMP2 FRET-substrate inhibition assay; Ki = IC50/(1+[S]0/Km)
Protocol: (§1) The inhibitory activity of the peptides was determined by measuring the MMPs' protease activity towards a FRET substrate. […] MMP2 was pre-incubated with the peptide inhibitors for 10 min before adding the substrate.

trypsin [3] = assay: cell-based or functional assay
Sequence of trypsin (P00760 24-246): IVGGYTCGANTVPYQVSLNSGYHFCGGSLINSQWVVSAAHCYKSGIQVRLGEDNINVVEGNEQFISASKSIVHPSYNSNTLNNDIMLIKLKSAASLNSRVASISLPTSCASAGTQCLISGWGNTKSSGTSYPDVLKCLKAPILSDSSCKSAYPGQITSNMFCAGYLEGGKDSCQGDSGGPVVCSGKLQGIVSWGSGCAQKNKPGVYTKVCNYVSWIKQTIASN

trypsin [4] = assay: trypsin FRET-substrate inhibition assay; Ki = IC50/(1+[S]0/Km)
[5] = biological target: T1, matrix metalloprotease 2 (MMP2); assay: MMP2 FRET-substrate inhibition assay
Protocol: as §1

[6] = biological target: T1, matrix metalloprotease 2 (MMP2); assay: MMP2 and MMP9 FRET-substrate inhibition assays
Protocol: as §1

MMP9 = MMP9 (UniProt P14780 107-707, limits assumed); assay: MMP9 FRET-substrate inhibition assay; Ki = IC50/(1+[S]0/Km)
Sequence of MMP9 (P14780 107-707 limits assumed): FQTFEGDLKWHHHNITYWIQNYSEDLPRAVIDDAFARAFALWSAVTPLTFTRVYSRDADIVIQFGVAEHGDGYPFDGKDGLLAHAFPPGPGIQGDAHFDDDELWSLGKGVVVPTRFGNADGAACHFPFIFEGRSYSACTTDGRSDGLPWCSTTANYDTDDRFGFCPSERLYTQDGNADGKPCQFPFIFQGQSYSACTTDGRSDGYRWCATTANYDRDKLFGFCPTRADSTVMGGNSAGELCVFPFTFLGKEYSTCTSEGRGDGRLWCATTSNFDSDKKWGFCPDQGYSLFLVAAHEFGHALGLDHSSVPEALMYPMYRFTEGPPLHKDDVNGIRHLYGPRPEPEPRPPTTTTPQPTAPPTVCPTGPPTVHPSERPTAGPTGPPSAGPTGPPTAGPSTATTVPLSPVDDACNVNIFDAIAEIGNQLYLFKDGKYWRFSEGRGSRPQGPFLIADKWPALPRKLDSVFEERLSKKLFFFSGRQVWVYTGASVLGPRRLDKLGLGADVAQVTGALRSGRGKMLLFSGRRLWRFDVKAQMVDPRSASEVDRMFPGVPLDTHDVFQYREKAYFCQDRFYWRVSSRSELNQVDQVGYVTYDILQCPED
Protocol: as §1

Row | Binder | IC50 [1] | Ki [2] | further results
1 | B1 | 10700 nM | 6980 nM | 
2 | B2 |  |  | IC50 (trypsin [3]): 2.01 nM; Ki (trypsin [4]): 0.18 nM
3 | B3 | > 100000 nM |  | 
4 | B4 | 354 nM | 231 nM | 
5 | B5 |  | 2.8 nM | fold better binding affinity against Asn-RTD-1 19 [5]: 13 fold; fold better binding affinity against Asp-RTD-1 18 [5]: 2.3 fold; fold improvement of Ki against the linear Asn(OH)-APP-IP peptide 9 [5]: 8.2 fold; fold more potent towards MMP2 than MMP9 [6]: ~1000 fold; Ki (MMP9): 2680 nM
6 | B6 | 35 nM | 23 nM | fold improvement of inhibitory activity against APP-IP 8 [5]: 2.6 fold
7 | B7 | 32500 nM | 21300 nM | 
8 | B8 |  | 6.5 nM | Ki (MMP9): 3290 nM
9 | B9 |  | 36.5 nM | Ki (MMP9): 5590 nM
10 | B10 | 18400 nM | 12000 nM | 
11 | B11 | 3340 nM | 2180 nM | 
12 | B12 | 92 nM | 60 nM | 
13 | B13 |  | 60 nM | 

From patent US20240167070A1 (NANYANG TECHNOLOGICAL UNIVERSITY, published 2024)
